Experiment: soluble on expression in E. coli; label from the status in PepcDB or PDB records

Row | Sequence | soluble on expression in E. coli
1 | MGSDKIHHHHHHASKIKQVGSTNLEPTTAYIRNYKATGSNAIYNKPGKLSGSKVVASASTAKAQSVLHGYKVAKLSNKSYYMKVVSFDGRYRGYIYVGKKNPVNNFKKVGGGLTYLSTTTSTSLTNNDKKDLSFAKPGTDTQIYKAPKGSQYKVGAAVKDTTDYKGHKLVASKAAMNDMDGQKWLYVSDVTEPTNASGWVLASQLTDYVAPKAPVSVGNDQTTVTKNWQREFYNPATGTKAYSFDNLNLPLLGTSGGSNVNWTTAVKKFNSDATVKGDKKDVVPADTLATAFKNSGLSTVYMKVTPTLLARIPGGLLDKIDSYSGLYMKFDLDMDNIPTTTHYGDQLKLAYKLDNTNLYYKPVISLGGLTNTNADGYAALPVQLNAMNTLWGLLYQ | not soluble
2 | MGSDKIHHHHHHTVQNAQLSQQHAPCVDNKWPKSRLLSLAGSQFEMTDADRNDMVMRLISCLADTDPELRDAVAFSGLSHWLRANDLTNETVKSLYTKLSGDVRKRKDDPNGVYLPFAILTLSEVARVDRVSPFFEPAERDALSKLAADTMAGIQDYRGFDETIGWRHQVAHSADLLLQLVLNPALSSDDIMELVTSIQHQLSPAGHFYVYGEPERLARPVLYAMLRDDIPDSFWHSQLARWSTPVHIEGWDKAFSSNAGLAERHNRRAFFSALLLGISGSKQPRLLALQPAIQAAMKKLP | not soluble
3 | MIPSRSARIIAKLQRLHSTTSAASVSSIDVKEVEKFGDLSAEWADELGPFHALHSLNRIRVPWIVDNVRKSDQKAPPRLVDVGSGGGLLSIPLARSGFDVTGIDATKQAVEAANQSLTAKPLQIAGISKRLRFEHTSVEDFCQKPHNKSAYDAVVASEIVEHVADLPGFIGCLAELARPGAPLFITTINRTWLSKLAAIWLAENVLKIVPPGVHDWEKFITPAELTSHLEKAGCRVTAVHGLMFHPVGNHWTWIESTQCNYGILAVKN | not soluble
4 | MKKIKALALFSGGLDSLLSMKLLIDQGIEVTALHFNIGFGGNKDKREYFENATAQIGAKLLVCDIREQFFNDVLFKPKYGYGKYFNPCIDCHANMFRNAFYKMLELNADFVLSGEVLGQRPKSQRKEALNQVRKLVREVGEEARFDPVLDRTQAGGKKPQFLDELLLRPMSAKLLEPTFMEKKGFVDREKLLDVSGRGRSRQLQMIKDYGLKYYEKPGGGCLLTDIQVSNKIKNLKEYREMVFEDSVIVKNGRYFVLPHNARLVVARNEEENHKLDIQHPLMDKIELLNCKGPLSLVDKNASKEDKELAGRIALGYAKTLKNQAYLIQIGDEKRELYPLDKENAREYLFALEHHHHHH | soluble
5 | MSLVWTKTTYMGINCWKSVSDMWNYQEILSELQPSLVIEFGTRYGGSAVYFANIMRQIGQPFKVLTVDNSHKALDPRARREPDVLFVESSSTDPAIAEQIQRLKNEYPGKIFAILDSDHSMNHVLAEMKLLRPLLSAGDYLVVEDSNINGHPVLPGFGPGPYEAIEAYEDEFPNEGHHHHHH | not soluble
6 | SLRRVLMLEGCAQPTLSPNTNAATARVLDRLGISVMPANEAGCCGAVDYHLNAQEKGLARARNNIDAWWPAIEAGAEAILQTASGCGAFVKEYGQMLKNDALYADKARQVSELAVDLVELLREEPLEKLAIRGDKKLAFHCPCTLQHAQKLNGEVEKVLLRLGFTLTDVPDSHLCCGSAGTYALTHPDLARQLRDNKMNALESGKPEMIVTANIGCQTHLASAGRTSVRHWIEIVEQALEKE | soluble
7 | MLKRPIHLSHDFLAEVVDKSSVVVDATMGNGNDTAFLAQLAKKVYAFDVQEQAIRKTSERLAQLGLSNAELILAGHEAVDQYVTEPVRAAIFNLGYLPSADKSIITLPNTTLQALSKLLTLLMVGGRIAIMVYYGHDGGSLEKDALLDFVKQLDQRKVSAMLYQPLNQVNTPPFLIMLEKLADF | not soluble
8 | NRYAKILVEKEKNRRTVMEQKMELESYKKVNVANDRYITLLHDTNHHIKTVYSLLKKDKKDDAMNMLSKLFDKYEKAEMIEYSGNTILNTILSDYKEKSSKENIECDIFVERGFNIEYVDEIDLVAMLSNLLSNSYEAAAKSDMKKIRIQMFMQNDGSFSVIKIENSYTSMIVEEDSVLKTTKQNKEFHGLGIKSVQQIAEKYNGWLSSTWSDNVFKSVLILENSMC | not soluble
9 | MQKRDGHIHTPFCPHGSNDTLRQYAEEALKKGFESITFTEHAPLPPSFTDPTPLKDSAMAQASLERYIHEISGLKKEYRGQLSIRTGLEVDYIAEFEDEITLFLDTYGPYLDDSILSVHFLRTDSSYLCLDYDEHTFKELISACGSIEAVYEQYYRSIYSSIVASLGVYKPKRVGHITLVQKFIKLFPYSMSEHIRGLVSLCLNAIEENGMELDFNTSGLRKTYAGGIYIEDWMLNEAKQKKIPLVFGSDAHQAGDVGYAYEAFLERCLEHHHHHH | not soluble
10 | MNSENSKWQAIQESTFALARKCEEFDSDGITVYLFSKTFQRYDYVNSAKVKQLFAENSPSETTNLVGVLQDAINSYFQRKSLGKTKPAGEVILVITDGAPVDSQAVCEVIIKATHLVESANELRISIIQVGSDSHATKFLKALDDHLQSVGAKFDICDTITLDELEITNLSDVLMKAITDLEHHHHHH | not soluble
11 | MAHHHHHHMASGCLKYASVDDFIAKCILSRDPYQPEFTQAVREVMTSLWPFLQKNPKYTQDGLLERIVEPERVIQFRVPWVDDKGVTHVNRAFRVQFNSAIGPYKGGMRFHPSVNLSILKFLGFEQTFKNSLTTLPMGGGKGGADFDPKGKSDCEVMRFCQSLVAELYRHIGADTDVPAGDIGVGSREVGYMNGMYWKLRNTNECTFTGKGLAFQGSAIRPEATGYGLVYFVQSMLTHVNDSLEGKTVLVSGSGNVAQYAIEKCMELGAKVITASDSKGYIQDPSGFDKVKLAKLMKLKNECRGTLEEYARETGVTYVPGKRPWCVKADIALPCATQNEIEGADAKTMLTNGVKLVAEGANMPTTEEATEIFQKAGVLFAPGKASNAGGVAISGLEMSQNAARLVWDAEEVDSRLRSIMSSIHDSCVQYGEKDGKVSYVDGANIAGFACFLRRRTFATRVSPVHQVLCT | soluble
12 | MLVSRNLAKTISNSKNAKNIHTSCRKFAPVPMTYASYSSPELDRNSPLVIVHGLFGQKQNWNSVGKALHKKLEAPVYAVDVRNHGSSPHTETMSYTEMAEDLVLFIDKVKEETKKTRVNLLGHSMGGKIVMRLAIDSKWSDRIEKLIVEDVSPKGYSRRHLEFRELIKTMRNVDLCRTRKEILKDLESAIPDLAMRQFILTNLQPSSENEGQMEWKININTIDSHVDEILGYTLPVGSFRGPTLFLHGANSGYVPDDHKPDIKCLFPQVQFDAIPDSGHWVHAEKPQLFINSVYKFLKP | not soluble
13 | MNKLKYLQGYPEHILAQVAPMVENGKLAEWVKKKYPTMHDITSEKALFDYTQALKNKYIKKSSPLSKVVYDPKIHVVNNALGLHTFVSRIHGNKLKAKNEIRISSVFRKAPEPLLRMLVVHELAHIKEKEHNKAFYALCCHMEPEYHQLEFDARLYLTYLETLLEHHHHHH | soluble
14 | SFKKFDEKENVSNCIQLKTSVIKGIKNQLLEQFPGIEPWLNQIMPKKDPVKIVRCHEHIEILTVNGELLFFRQREGPFYPTLRLLHKYPFILPHQQVDKGAIKFVLSGANIMCPGLTSPGAKLYPAAVDTIVAIMAEGKQHALCVGVMKMSAEDIEKVNKGIGIENIHYLNDGLWHMKTYK | soluble
15 | TNADYPALYLANFLLGTSETSRLWHRVRETEGLSYNVRSNLSVSSYEPSANWTIYAIYAPQNRARLEKAISEELARALKDGFTDQEVRDGVVALLNYRNLARAQDDVLADTWVNYMQTGRSFQWSADMDRKLEALTPDQVNAALRKYLKPDAFSTAVAGDFTKKSAP | not soluble
16 | NNADYIEMKVPAQPEYVGIIRLTLSGVASRMGYTYDEIEDLKIAVSEACTNAVQHAYKEDKNGEVSIRFGVFEDRLEVIVADEGDSFDFDQKQQDLGPYTPSHTVDQLSEGGLGLYLMETLMDEVRVQNHSGVTVAMTKYLNGERVDHDTTIKNYETN | not soluble
17 | MAHHHHHHMDEEVVLRGVEDITCRCVYSHVYVYARVCVFGYVLPSSSVVYRGTLAMECTFGVHEKKNKMKKNKCYLRGQTIGTRDTVCGVMCLNIPPRHCYCSFFLFPFYNPFLL | not soluble
18 | MGSDKIHHHHHHMLPNLKKALDGIVVCDFSWVGAGPIATNVLGQCGAEVIKIESKSRPDLLRTGGPFKDGINEGLERSGYFANRNPNKKGIALDMSHPKARAVAVRLIRKSDIVINNFRVGQMEKWGLGWEDVRKINPRIIYVTMSLQGETGPQKSYMGFGVNLNALCGLTAQACFPGERPFGTGTNYTDHVMAPSHTLFGIMAALLEREQTGEGQTVAISQLKSAISMAPTSAMTYAANGDTLGPAGLSDPNAAPHGLFTTLGYRRWIAIAVFSEDEWRALKKVMGNPAWAEDGKFGSLQSRKENEAELNEHMEAWTSRQHADKIMDELLRNGVRAGVVNDARGAIEDDHLREREFWSYLDHPVMGRTLYNRAPIRLSKTPLRMETAAPLLGQHTRDVLKGMLDYTDEEIAMLSEEKVLV | not soluble
19 | MSTVVEKSGEAKPGKVEVGVKLRGAEKVARIPVKIIPTEELPKKPDWIRVRIPVSPEVDRIKQLLRKHKLHSVCEEASCPNLGECFSGGTATFMIMGDICTRRCPFCDVGHGRPKPLDVDEPTNLAIAIADLRLKYVVITSVDRDDLRDGGAQHFADCLREIRKLSPGIQLETLVPDYRGRMDIALEITANEPPDVFNHNLETVPRLYRSSRPGSDFEWSLDLLQKFKQMVPHVPTKSGLMLGLGETDDEVIEVMQRMREHDIDMLTLGQYLQPSRNHLPVQRFVHPDTFAWFAEEGEKMGFKNVASGPLVRSSYHADQQAHGNKIG | not soluble
20 | EVQLQQSGPELVKPGSSVKISCKASRNTFTDYNLDWVKQSHGKTLEWIGNVYPNNGVTGYNQKFRGKATLTVDKSSSTAYMELHSLTSEDSAVYYCALYYYDVSYWGQGTLVTVSSAKTTPPSVYPLAPGSAAQTNSVTLGCLVKGYFPEPVTVTWNSGSLSSGVHTFPAVLQSDLYTLSSSVTVPSSTWPSQSVTCNVAHPASSTAVDKKIAPA | soluble
21 | SLSIYSFSQITRSLFLSNGVAANDKLLLSSNRITAIVNASVEVVNVFFEGIQYIKVPVTDARDSRLYDFFDPIADLIHTIDMRQGRTLLHCMAGVSRSASLCLAYLMKYHSMSLLDAHTWTKSRRPIIRPNNGFWEQLINYEFKLFNN | not soluble
22 | MKLLSSIEQACDICRLKKLKCSKEKPKCAKCLKNNWECRYSPKTKRSPLTRAHLTEVESRLERLEF | soluble
23 | MARQTKPLSVKEIESAKPKEADYVLYDGDGLELLIKSSGSKIWQFRYIRPVTKTRAKKSIGPYPSVTLADARNYRAESRSLLAKQIDPQEHQQEQLRSSLEAKTNTFQLVAERWWNVKKASVTEDYAEDIWRSLERDVFPAIGDVSVTDIKAHTLVQAVQPVQARGALETVRRLCQRINEVMIYAQNTGLIDAVPSVNIGKAFEKPQKKNMPSIRPDQLSQLMQTMRTASISLSTRCLFMWQLLTITRPAEAAEARWEEVDIEAQEWKIPAARMKMNRDHTVPLSDEAIAVLEMMKPLSGNREFIFPSRIKPNQPMNSQTVNASLKRAGFGGVLVSHGLRSIASTALNEQGFPPDAIEAALAHVDKNEVRRAYNRSDYLEQRRPMMQWWANFVMAADRGSMIEGGIKGMKLVG | not soluble
